Patent US20210107998A1 (Boehringer Ingelheim, published 2021)
Where a chain is given by its changes, count along the chain named.

Assays:
[1] = target: Recombinant cynomolgus BAFF trimer (Boehringer Ingelheim Pharmaceuticals, Inc.) (cynomolgus, UniProt A0A2K5V2X4 134-285); assay: cell-based or functional assay
cynomolgus IL-23 [2] = target: T1, cynomolgus IL-23 (cynomolgus, UniProt H6WS56 20-189); assay: cell-based or functional assay
Recombinant human IL-23 [3] = target: T2, Recombinant human IL-23 (human, UniProt P29460 23-328); assay: cell-based or functional assay
T2 sequence 1: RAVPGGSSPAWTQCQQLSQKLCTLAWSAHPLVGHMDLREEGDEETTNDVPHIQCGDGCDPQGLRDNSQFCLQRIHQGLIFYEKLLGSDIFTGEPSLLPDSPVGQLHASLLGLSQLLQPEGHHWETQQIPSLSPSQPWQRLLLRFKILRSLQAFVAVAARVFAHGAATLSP
T2 sequence 2: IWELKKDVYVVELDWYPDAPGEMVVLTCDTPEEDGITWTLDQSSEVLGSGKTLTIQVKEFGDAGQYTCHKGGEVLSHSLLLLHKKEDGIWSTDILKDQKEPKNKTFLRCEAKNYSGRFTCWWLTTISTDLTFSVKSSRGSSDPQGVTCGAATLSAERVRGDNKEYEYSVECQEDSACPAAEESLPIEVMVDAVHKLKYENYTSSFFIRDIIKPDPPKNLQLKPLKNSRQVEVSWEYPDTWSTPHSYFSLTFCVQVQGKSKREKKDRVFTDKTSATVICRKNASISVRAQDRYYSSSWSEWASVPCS

[4] = target: membrane-bound human BAFF on fixed CHO-K1 cells (human, UniProt Q9Y275 1-285); assay: cell-based or functional assay
[5] = target: T3, Recombinant human BAFF trimer (Boehringer Ingelheim Pharmaceuticals, Inc.) (human, UniProt Q9Y275 134-285, limits assumed); assay: cell-based or functional assay
[6] = target: Recombinant human BAFF 60mer (Boehringer Ingelheim Pharmaceuticals, Inc.) (human, UniProt Q9Y275 134-285, limits assumed); assay: cell-based or functional assay
Recombinant human IL-23 [7] = target: T2, Recombinant human IL-23; assay: cell-based or functional assay; remark: listed apart in the source
[8] = target: T3, Recombinant human BAFF trimer …; assay: cell-based or functional assay; remark: listed apart in the source
[9] = target: T4, Linked human IL-23 (Boehringer Ingelheim Pharmaceuticals, Inc.) (human, UniProt P29460 23-328); assay: SPR (ProteOn XPR36), compound captured on goat anti-human IgG Fc, antigen injected
T4 sequence 1: T2 sequence 1
T4 sequence 2: T2 sequence 2
Method: (§1) SPR experiments were performed on a ProteOn XPR36 instrument (Bio Rad). A GLM chip was preconditioned with sequential injections of 60 sec of 0.5% SDS, 50 mM NaOH, and 100 mM HCl at a flow rate of 30 μl/min both vertical and horizontal directions.
(§2) The preconditioned GLM chip was then activated by an injection of EDC (76.7 mg/ml) and sulfo-NHS (21.7 mg/ml) mixture with ratio of 1:1 in 6 horizontal channels. Goat-anti-human IgG (GAHA) Fc gamma (Invitrogen) at a concentration of 30 μg/ml in 10 mM, pH 5.0 sodium acetate buffer was immobilized to 8,000 resonance units on the activated GLM chip in 6 horizontal channels. The chip was finally deactivated with 1 M ethanolamine HCl in 6 horizontal channels. The prepared GAHA chip was rotated to vertical direction to capture test compounds, over 5 vertical channels and the last channel was used as a column reference. The captured chip was then rotated again to the horizontal direction for binding. […] The dissociation was allowed for 2 hour. The GAHA surface was regenerated using short pulse injection (18 seconds) of 0.85% phosphoric acid (Bio Rad) at a flow rate of 100 μl/min both horizontal and vertical directions after 10 min association and 2 hr dissociation. The regenerated GAHA was ready for another binding cycle.

cynomolgus IL-23 [10] = target: T1, cynomolgus IL-23; assay: as above
Method: as §1, §2

cynomolgus BAFF = target: T5, cynomolgus BAFF (cynomolgus, UniProt A0A2K5V2X4 134-285); assay: as above
T5 construct: construct not described
Method: as §1, §2

human BAFF [11] = target: T6, human BAFF (human, UniProt Q9Y275 134-285, limits assumed); assay: as above
T6 construct: also called hu BAFF; hBAFF
Method: as §1, §2

Recombinant human IL-23 [12] = target: T2, Recombinant human IL-23; assay: BLI (Octet RED96, streptavidin tips), compound incubated 48 h at 37 C in whole blood vs kinetic buffer
Method: (§3) A whole blood interference assay was developed on an Octet RED96 to detect the effects of non-specific binding or off-target binding for compounds in the presence of whole blood (WB). The compound solutions in whole blood and 1× kinetic running buffer (1×kb) were incubated at a temperature of 37° C. for 48 hours. Kinetic measurements for the incubated compound samples were performed with an Octet RED96 equipped with streptavidin (SA) biosensor tips (ForteBio, Menlo Park, Calif.) at 27° C. The ratio of the on-rates/binding signals in buffer and whole blood were reported. A ratio <2 was considered to show no interference.

human BAFF [13] = target: T6, human BAFF; assay: as above
Method: as §3

human BAFF [14] = target: T6, human BAFF; assay: cell-based or functional assay

B1: Compound A (bispecific antibody, human IgG1, kappa, L234A L235A)
chain 1: DIQMTQSPSSLSASVGDRVTITCKASRDVAIAVAWYQQKPGKVPKLLIYWASTRHTGVPSRFSGSGSRTDFTLTISSLQPEDVADYFCHQYSSYPFTFGSGTKLEIKGGGSGGGGQVQLVQSGAEVKKPGASVKVSCKASGYSFSTFFIHWVRQAPGQGLEWIGRIDPNSGATKYNEKFESRVTMTRDTSISTAYMELSRLRSDDTAVYYCARGEDLLIRTDALDYWGQGTSVTVSSLGGGSGASTKGPSVFPLAPSSKSTSGGTAALGCLVKDYFPEPVTVSWNSGALTSGVHTFPAVLQSSGLYSLSSVVTVPSSSLGTQTYICNVNHKPSNTKVDKRVEPKSCDKTHTCPPCPAPEAAGGPSVFLFPPKPKDTLYITREPEVTCVVVDVSHEDPEVKFNWYVDGVEVHNAKTKPREEQYNSTYRVVSVLTVLHQDWLNGKEYKCKVSNKALPAPIEKTISKAKGQPREPQVYTLPPSREEMTKNQVSLTCLVKGFYPSDIAVEWESNGQPENNYKTTPPVLDSDGSFFLYSKLTVDKSRWQQGNVFSCSVMHEALHNHYTQKSLSLSPG
chain 2: DIQMTQSPSSLSASVGDRVSITCKASQNAGIDVAWFQQKPGKAPKLLIYSKSNRYTGVPSRFSGSGSGTDFTLTISSLQPEDFATYYCLQYRSYPRTFGQGTKLEIKGGGSGGGGQVQLVQSGAEVKKPGSSVKVSCKASGYTFTDQTIHWMRQAPGQGLEWIGYIYPRDDSPKYNENFKGKVTITADKSTSTAYMELSSLRSEDTAVYYCAIPDRSGYAWFIYWGQGTLVTVSSLGGGSGRTVAAPSVFIFPPSDEQLKSGTASVVCLLNNFYPREAKVQWKVDNALQSGNSQESVTEQDSKDSTYSLSSTLTLSKADYEKHKVYACEVTHQGLSSPVTKSFNRGEC
notes: Made in CHO-S cells
IC50 Geomean, NFkB luciferase reporter, human BAFFR-CHO cells [1]: 0.132 nM
IC90 Geomean, NFkB luciferase reporter, human BAFFR-CHO cells [1]: 0.191 nM
IC50, IL-23-induced mouse IL-17 release from mouse splenocytes (cynomolgus IL-23 [2]): 0.155 nM
IC90, IL-23-induced mouse IL-17 release from mouse splenocytes (cynomolgus IL-23 [2]): 1.31 nM
IC50, IL-23-induced mouse IL-17 release from mouse splenocytes (Recombinant human IL-23 [3]): 0.146 nM
IC90, IL-23-induced mouse IL-17 release from mouse splenocytes (Recombinant human IL-23 [3]): 1.65 nM
IC50, NFkB luciferase reporter, human BAFFR-CHO cells stimulated with fixed human BAFF CHO-K1 cells [4]: 0.118 nM
IC90, NFkB luciferase reporter, human BAFFR-CHO cells stimulated with fixed human BAFF CHO-K1 cells [4]: 1.02 nM
IC50, NFkB luciferase reporter, human BAFFR-CHO cells [5]: 0.043 nM
IC90, NFkB luciferase reporter, human BAFFR-CHO cells [5]: 0.18 nM
IC50, NFkB luciferase reporter, human BAFFR-CHO cells [6]: 0.006 nM
IC90, NFkB luciferase reporter, human BAFFR-CHO cells [6]: 0.019 nM
IC50, STAT3-luciferase reporter in DB lymphoblast B cells (Recombinant human IL-23 [7]): 0.145 nM
IC90, STAT3-luciferase reporter in DB lymphoblast B cells (Recombinant human IL-23 [7]): 1.23 nM
IC50 Geomean, NFkB luciferase reporter, human TACI-CHO cells [8]: 0.159 nM
IC90 Geomean, NFkB luciferase reporter, human TACI-CHO cells [8]: 0.417 nM
Kd [9]: < 0.015 nM
Kd (cynomolgus IL-23 [10]): < 0.015 nM
Kd (cynomolgus BAFF): < 0.015 nM
Kd (human BAFF [11]): < 0.015 nM
Ratio of binding signal in WB/kinetic buffer (Recombinant human IL-23 [12]): 1.1
Ratio of binding signal in WB/kinetic buffer (human BAFF [13]): 1.2

B2: Compound D (bispecific antibody, human IgG4 S228P, kappa)
chain 1: DIQMTQSPSSLSASVGDRVTITCKASRDVAIAVAWYQQKPGKVPKLLIYWASTRHTGVPSRFSGSGSRTDFTLTISSLQPEDVADYFCHQYSSYPFTFGSGTKLEIKGGGSGGGGQVQLVQSGAEVKKPGASVKVSCKASGYSFSTFFIHWVRQRPGQGLEWIGRIDPNSGATKYNEKFESKVTLTRDTSISTAYMELSRLRSDDTAVYYCARGEDLLIRTDALDYWGQGTSVTVSSLGGGSGASTKGPSVFPLAPCSRSTSESTAALGCLVKDYFPEPVTVSWNSGALTSGVHTFPAVLQSSGLYSLSSVVTVPSSSLGTKTYTCNVDHKPSNTKVDKRVESKYGPPCPPCPAPEFLGGPSVFLFPPKPKDTLYITREPEVTCVVVDVSQEDPEVQFNWYVDGVEVHNAKTKPREEQFNSTYRVVSVLTVLHQDWLNGKEYKCKVSNKGLPSSIEKTISKAKGQPREPQVYTLPPSQEEMTKNQVSLTCLVKGFYPSDIAVEWESNGQPENNYKTTPPVLDSDGSFFLYSRLTVDKSRWQEGNVFSCSVMHEALHNHYTQKSLSLSLG
chain 2: B1 chain 2 with T85D, Q100G
notes: Large chain: IL23A(1) VL - BAFF(6) VH - LGGGSG - IgG4-Pro-YTE; small chain: BAFF(6) VL - IL23A(1) VH - LGGGSG - CL; Tetravalent format
IC50 Geomean, NFkB luciferase reporter, human BAFFR-CHO cells [1]: 0.118 nM
IC90 Geomean, NFkB luciferase reporter, human BAFFR-CHO cells [1]: 0.248 nM
IC50, IL-23-induced mouse IL-17 release from mouse splenocytes (cynomolgus IL-23 [2]): 0.097 nM
IC90, IL-23-induced mouse IL-17 release from mouse splenocytes (cynomolgus IL-23 [2]): 1.55 nM
IC50, IL-23-induced mouse IL-17 release from mouse splenocytes (Recombinant human IL-23 [3]): 0.105 nM
IC90, IL-23-induced mouse IL-17 release from mouse splenocytes (Recombinant human IL-23 [3]): 1.7 nM
IC50, NFkB luciferase reporter, human BAFFR-CHO cells stimulated with fixed human BAFF CHO-K1 cells [4]: 0.104 nM
IC90, NFkB luciferase reporter, human BAFFR-CHO cells stimulated with fixed human BAFF CHO-K1 cells [4]: 0.938 nM
IC50, NFkB luciferase reporter, human BAFFR-CHO cells [5]: 0.034 nM
IC90, NFkB luciferase reporter, human BAFFR-CHO cells [5]: 0.172 nM
IC50, NFkB luciferase reporter, human BAFFR-CHO cells [6]: 0.004 nM
IC90, NFkB luciferase reporter, human BAFFR-CHO cells [6]: 0.012 nM
IC50, STAT3-luciferase reporter in DB lymphoblast B cells (Recombinant human IL-23 [7]): 0.128 nM
IC90, STAT3-luciferase reporter in DB lymphoblast B cells (Recombinant human IL-23 [7]): 3.09 nM
IC50 Geomean, NFkB luciferase reporter, human TACI-CHO cells [8]: 0.163 nM
IC90 Geomean, NFkB luciferase reporter, human TACI-CHO cells [8]: 0.436 nM
Kd [9]: < 0.015 nM
Kd (cynomolgus IL-23 [10]): < 0.015 nM
Kd (cynomolgus BAFF): < 0.015 nM
Kd (human BAFF [11]): < 0.015 nM
Ratio of binding signal in WB/kinetic buffer (Recombinant human IL-23 [12]): 1.7
Ratio of binding signal in WB/kinetic buffer (human BAFF [13]): 1.3

B3: Control Antibody 3 (anti-BAFF monoclonal antibody) (BAFF (3)) (antibody, V domains shown)
VH: QVQLQQWGAGLLKPSETLSLTCAVYGGSFSGYYWSWIRQPPGKGLEWIGEINHSGSTNYNPSLKSRVTISVDTSKNQFSLKLSSVTAADTAVYYCARGYYDILTGYYYYFDYWGQGTLVTVSS
VL: EIVLTQSPATLSLSPGERATLSCRASQSVSRYLAWYQQKPGQAPRLLIYDASNRATGIPARFSGSGSGTDSTLTISSLEPEDFAVYYCQQRSNWPRTFGQGTKVEIK
IC50 Geomean, NFkB luciferase reporter, human BAFFR-CHO cells [1]: 0.257 nM
IC90 Geomean, NFkB luciferase reporter, human BAFFR-CHO cells [1]: 0.588 nM
IC50, 3H-thymidine incorporation, primary human B cells stimulated with anti-IgM and hBAFF (human BAFF [14]): 0.0873 nM
IC50, NFkB luciferase reporter, human BAFFR-CHO cells stimulated with fixed human BAFF CHO-K1 cells [4]: 0.25 nM
IC90, NFkB luciferase reporter, human BAFFR-CHO cells stimulated with fixed human BAFF CHO-K1 cells [4]: 2.92 nM
IC50, NFkB luciferase reporter, human BAFFR-CHO cells [5]: 0.07 nM
IC90, NFkB luciferase reporter, human BAFFR-CHO cells [5]: 0.417 nM
IC50, NFkB luciferase reporter, human BAFFR-CHO cells [6]: 0.015 nM
IC90, NFkB luciferase reporter, human BAFFR-CHO cells [6]: 0.038 nM
IC50 Geomean, NFkB luciferase reporter, human TACI-CHO cells [8]: 0.241 nM
IC90 Geomean, NFkB luciferase reporter, human TACI-CHO cells [8]: 0.618 nM
